± gives the standard deviation of the averaged measurements.
Test system: Saccharomyces cerevisiae
Experiment: protein stability index of tFT-peptide fusion (C-terminal peptide) (PSI (0-1 scale)); higher = more stable (slower turnover)
Details: genetic background: wild type; temperature: 30 C
Experimental: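 Multiplexed protein stability (MPS) profiling in S. cerevisiae. Random 12-aa peptides (tFT-X12 library) are fused to the C-terminus of a sfGFP-mCherry tandem fluorescent timer, after mCherry and a GGGS linker. Cells are FACS-sorted into 8 mCherry/sfGFP bins and deep-sequenced. The protein stability index (PSI) is the read-weighted bin average, scaled from 0 (unstable) to 1 (stable). Only peptides with >10 reads are reported; cells were grown at 30 °C in SC-His with glucose.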
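Further: PSI is a weighted mean of sequencing reads over stability bins, variants kept only with over 10 reads, mCherry proximal and sfGFP distal, peptide attached via GGGS linker.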

Sequence	protein stability index
ARPVPRAPSRYA	0.647 ± 0.047
ARRTEEVVLRSL	0.693 ± 0.059
ARSERVVPKMQS	0.732 ± 0.043
ARSGDSGQPPSQ	0.689 ± 0.05
ARSPSPLPSPPP	0.702 ± 0.018
ARVPPFPCHPTL	0.686 ± 0.03
ARVRAREGGDRG	0.624 ± 0.0076
ASDSNPLDPADD	0.708 ± 0.011
ASEHRPPRPHER	0.683 ± 0.071
ASFPPVHPALSP	0.664 ± 0.035
ASIRLSPSWVQR	0.652 ± 0.0081
ASLLGLLIHLGR	0.6951 ± 0.0059
ASNPGPLTPPQP	0.705 ± 0.0087
ASPCTVAQDPRT	0.621 ± 0.023
ASPFASCPPSLP	0.714 ± 0.037
ASPPAYGPPPPP	0.6806 ± 0.0035
ASPSPLPPLPPP	0.718 ± 0.1
ASPYTVTPLTNS	0.693 ± 0.016
ASSLSHLSLPAP	0.695 ± 0.017
ASSLSPSTFFCL	0.642 ± 0.015
ASSVVGLEERVR	0.728 ± 0.049
ASTCLKFTPTIF	0.883 ± 0.1
ASTSPSASSSPP	0.727 ± 0.024
ASVLGGLFRDRV	0.773 ± 0.057
ASVSVWLVFSGG	0.594 ± 0.0075
ASYGHCTTCRRT	0.717 ± 0.021

Sequence	protein stability index
ASYGTRHSAPSV	0.678 ± 0.0076
ASYSFLSFCNRV	0.631 ± 0.015
ATACSIMISNAV	0.662 ± 0.029
ATKAKKGTMSHE	0.652 ± 0.051
ATPPSPLPPSPP	0.754 ± 0.061
ATQVGGPTHSHP	0.7016 ± 0.0031
ATRLFSSNLFLR	0.576 ± 0.051
ATSFSLLPACFS	0.686 ± 0.0007
ATYNASLERLRP	0.719 ± 0.2
AVAETCEQAGRG	0.675 ± 0.066
AVAYMAHLPITR	0.69 ± 0.019
AVCGSISSWMWF	0.696 ± 0.0092
AVFSWVTAGQCD	0.684 ± 0.027
AVGQAGITSLVL	0.699 ± 0.029
AVLGWAGGGWAG	0.694 ± 0.11
AVLPSLWLWTKK	0.682 ± 0.095
AVPITRLPSPSP	0.6668 ± 0.0047
AVPSAPPNPDAS	0.704 ± 0.046
AVRDGSGCQCVG	0.6797 ± 0.0012
AVRGCGVGSGWR	0.713 ± 0.02
AVRYFKLCRSCL	0.65 ± 0.012
AVTLAPPRLRPL	0.761 ± 0.029
AVTSLGGGIILN	0.659 ± 0.045
AVWNWEEVWLSG	0.654 ± 0.023
AWGRRGGRMKVG	0.62 ± 0.022
AWGWGGTGSAGA	0.71 ± 0.0097

Sequence	protein stability index
AWGWPWGHGFVV	0.738 ± 0.047
AWLLWGPVLRGI	0.694 ± 0.051
AYLPSLPPLGGI	0.717 ± 0.06
AYRITRSRGTEF	0.7233 ± 0.0036
CAGPLLIPPLSL	0.6895 ± 0.0042
CAIGECRGAGVS	0.679 ± 0.032
CAIGTGTKVKPS	0.684 ± 0.016
CALCRLGVAWVS	0.596 ± 0.021
CAPTFSYSLVLS	0.514 ± 0.036
CARAAFRGYYAQ	0.744 ± 0.074
CASPLHPCPKST	0.6542 ± 0.0023
CCGDAVVGPRVV	0.711 ± 0.041
CCGSSPLPPFTS	0.724 ± 0.055
CCISCSVCKDGS	0.6183 ± 0.00094
CCLSGGFFLFGL	0.622 ± 0.062
CCPVTLLLPFPL	0.606 ± 0.01
CCRRWSLEWGRG	0.717 ± 0.038
CCVGVGTRLGFA	0.646 ± 0.082
CCVKRARVPHFV	0.6159 ± 0.0014
CDEVEGVLLVRG	0.707 ± 0.047
CDFVFEFSCVQV	0.577 ± 0.025
CDRAYSPLSRHN	0.6848 ± 0.0063
CDVLNQTRKRHK	0.7028 ± 0.0019
CEVGSKGCACRV	0.649 ± 0.025
CFFGSILYLCFG	0.5331 ± 0.0045
CFLLCLSSSPVL	0.64 ± 0.029

Sequence	protein stability index
CFPYFCGFLGPL	0.697 ± 0.031
CFVIFFSSPGVC	0.583 ± 0.03
CGAAFRSWTVRG	0.653 ± 0.067
CGAVDTETWWGG	0.642 ± 0.024
CGGAVMREGQVG	0.681 ± 0.013
CGGGGASGAIAR	0.668 ± 0.013
CGGGRSTAWERS	0.63 ± 0.015
CGGVLAQREVSG	0.637 ± 0.021
CGIAGVKSLGLC	0.717 ± 0.039
CGSCFIKRFGGG	0.631 ± 0.034
CGSTRGDCVGIW	0.705 ± 0.05
CGTYFRLTRCAV	0.577 ± 0.043
CGVLPTPDRHHS	0.631 ± 0.084
CGWAWGWRESKM	0.723 ± 0.1
CHPFQAAVPIYL	0.581 ± 0.12
CHRSSPPPPPPT	0.711 ± 0.046
CIFTVINNTPYC	0.801 ± 0.12
CISCVVDSPLSV	0.712 ± 0.045
CISGRGIYAKAF	0.699 ± 0.043
CLGSVFYCCWNF	0.648 ± 0.025
CLHFSFFTFENF	0.67 ± 0.02
CLPFSCFLLTPR	0.692 ± 0.014
CLPTGMSKFPDF	0.683 ± 0.029
CLRFPALPRRHP	0.772 ± 0.017
CLSHSIYYSFSF	0.691 ± 0.086
CLVLDILSETWL	0.71 ± 0.036

Sequence	protein stability index
CLWCCFTDCCDT	0.762 ± 0.011
CLWLALMSIFLP	0.539 ± 0.03
CLWTSAQVPFQT	0.703 ± 0.0081
CMASCTRSYYRL	0.661 ± 0.005
CPAPCPPLPPHV	0.71997 ± 0.00064
CPCPSHLLLRSP	0.659 ± 0.0084
CPDGSGWLARGC	0.661 ± 0.11
CPFPPPPCPPPL	0.665 ± 0.02
CPGGRKPRQTAG	0.679 ± 0.14
CPGPPSLSPRPS	0.672 ± 0.029
CPLPIKANLSFP	0.705 ± 0.037
CPLPPPRPLLSA	0.651 ± 0.026
CPPPPPPPPSRC	0.704 ± 0.036
CPPRIVRPRGVK	0.6775 ± 0.0019
CPRAPKTPISGI	0.635 ± 0.049
CPRPPPPTACPV	0.641 ± 0.1
CPSAPHNTLSTG	0.68 ± 0.052
CQERKLKNQPMV	0.607 ± 0.054
CQILLSYSGYPH	0.589 ± 0.021
CQWLIVEWEEKG	0.662 ± 0.083
CRAGSVGGIRGR	0.693 ± 0.015
CRPTGSSTRFQL	0.718 ± 0.01
CRWGGGGRRGRG	0.723 ± 0.025
CSAHVPAPHSYR	0.704 ± 0.061
CSDGAFELRRDG	0.544 ± 0.078
CSDISASTVSRL	0.715 ± 0.039

Sequence	protein stability index
CSKLYGAFANTF	0.644 ± 0.1
CSKRTGRKSVTY	0.7299 ± 0.0063
CSLSGAFLNQAR	0.6842 ± 0.0041
CSPCSFCDLVSH	0.691 ± 0.03
CSSGGFSLFDEA	0.7504 ± 0.0024
CSWLVEWVLSFS	0.5417 ± 0.0041
CTAWGGWWTGRR	0.743 ± 0.16
CTCGDFHRAWVS	0.667 ± 0.01
CTCTVSMLPRTC	0.639 ± 0.017
CTFSGSHGSFPS	0.717 ± 0.028
CTHYFSNSCLLR	0.604 ± 0.063
CTICQLASKAIC	0.599 ± 0.04
CTRGVVSPKLFV	0.786 ± 0.17
CTRLSQTSMGRG	0.696 ± 0.043
CTSCDVFVFCPF	0.708 ± 0.036
CVAFLPISSFTS	0.76 ± 0.07
CVAGSARVCDVR	0.627 ± 0.083
CVDWGAVGLVAG	0.598 ± 0.018
CVGFVVVGGVLG	0.667 ± 0.05
CVGGFLEGIRLG	0.711 ± 0.041
CVGVEDFFFACF	0.703 ± 0.029
CVVRSGIGFSLL	0.741 ± 0.026
CWAGKITAKIDV	0.666 ± 0.0085
CWRDTSSPSVLD	0.682 ± 0.041
CYCTYHDQDSVS	0.757 ± 0.032

Reference: the supplement of paper PMC10724198
